Laboratory results taken from patent US7981997B2, “Growth factor which acts through ErbB-4 RTK” (Yeda Research And Development Co., priority 2000, dated 2011).

What was measured:
[1] = molecular target: T1, ErbB-4 co-expressed with ErbB-2 (Homo sapiens, UniProt Q15303); test: Covalent crosslinking to CHO cells co-transfected with ErbB-4 and ErbB-2; format: binding; settings: precipitation with anti-ErbB-2 antibodies
T1 construct: expressed in transfected cells; host or cells: CHO (Chinese Hamster Ovary) cells, transient co-transfection
Method: (§1) CHO cells were transfected with vectors directing expression of the indicated ErbB proteins or their combinations. Two days later cell monolayers were incubated with either ^125I-NRG-1β or ^125I-NRG-4 (EGF-like domains, each at 100 ng/ml). Following 2 hours at 4° C., the covalent crosslinking reagent bis(sulfosuccinimdyl)-suberate (BS^3) was added (1 mM final concentration) and cell extracts prepared after an additional 45 minutes of incubation. The indicated ErbB proteins were then immunoprecipitated with mouse monoclonal antibodies, and the complexes resolved by gel electrophoresis and autoradiography. Arrows mark the locations of monomeric (M) and dimeric (D) receptor complexes.
(§2) Growth factors were labeled with Iodogen (Pierce) as described (Karunagaran et al., 1995). Chemical crosslinking to Chinese Hamster Ovary (CHO) cells engineered to express different ErbB combinations have been performed essentially as described (Tzahar et al., 1996). Briefly, radiolabeled ligands (at 100 ng/ml) were incubated for 2 hours with cell monolayers at 4 C. […] Non-specific binding was determined in the presence of a 100-fold molar excess of the unlabeled ligani. Cells were then washed, lysed in a solution containing 0.1 M NaOH and 0.1% SDS, and radioactivity determined by use of a gamma counter. […]

[2] = molecular target: T2, ErbB-4 co-expressed with ErbB-3 (Homo sapiens, UniProt Q15303); test: Covalent crosslinking to CHO cells co-transfected with ErbB-4 and ErbB-3; format: binding
T2 construct: expressed in transfected cells; host or cells: CHO (Chinese Hamster Ovary) cells, transient co-transfection
T2 sequence (Q15303 26-1308): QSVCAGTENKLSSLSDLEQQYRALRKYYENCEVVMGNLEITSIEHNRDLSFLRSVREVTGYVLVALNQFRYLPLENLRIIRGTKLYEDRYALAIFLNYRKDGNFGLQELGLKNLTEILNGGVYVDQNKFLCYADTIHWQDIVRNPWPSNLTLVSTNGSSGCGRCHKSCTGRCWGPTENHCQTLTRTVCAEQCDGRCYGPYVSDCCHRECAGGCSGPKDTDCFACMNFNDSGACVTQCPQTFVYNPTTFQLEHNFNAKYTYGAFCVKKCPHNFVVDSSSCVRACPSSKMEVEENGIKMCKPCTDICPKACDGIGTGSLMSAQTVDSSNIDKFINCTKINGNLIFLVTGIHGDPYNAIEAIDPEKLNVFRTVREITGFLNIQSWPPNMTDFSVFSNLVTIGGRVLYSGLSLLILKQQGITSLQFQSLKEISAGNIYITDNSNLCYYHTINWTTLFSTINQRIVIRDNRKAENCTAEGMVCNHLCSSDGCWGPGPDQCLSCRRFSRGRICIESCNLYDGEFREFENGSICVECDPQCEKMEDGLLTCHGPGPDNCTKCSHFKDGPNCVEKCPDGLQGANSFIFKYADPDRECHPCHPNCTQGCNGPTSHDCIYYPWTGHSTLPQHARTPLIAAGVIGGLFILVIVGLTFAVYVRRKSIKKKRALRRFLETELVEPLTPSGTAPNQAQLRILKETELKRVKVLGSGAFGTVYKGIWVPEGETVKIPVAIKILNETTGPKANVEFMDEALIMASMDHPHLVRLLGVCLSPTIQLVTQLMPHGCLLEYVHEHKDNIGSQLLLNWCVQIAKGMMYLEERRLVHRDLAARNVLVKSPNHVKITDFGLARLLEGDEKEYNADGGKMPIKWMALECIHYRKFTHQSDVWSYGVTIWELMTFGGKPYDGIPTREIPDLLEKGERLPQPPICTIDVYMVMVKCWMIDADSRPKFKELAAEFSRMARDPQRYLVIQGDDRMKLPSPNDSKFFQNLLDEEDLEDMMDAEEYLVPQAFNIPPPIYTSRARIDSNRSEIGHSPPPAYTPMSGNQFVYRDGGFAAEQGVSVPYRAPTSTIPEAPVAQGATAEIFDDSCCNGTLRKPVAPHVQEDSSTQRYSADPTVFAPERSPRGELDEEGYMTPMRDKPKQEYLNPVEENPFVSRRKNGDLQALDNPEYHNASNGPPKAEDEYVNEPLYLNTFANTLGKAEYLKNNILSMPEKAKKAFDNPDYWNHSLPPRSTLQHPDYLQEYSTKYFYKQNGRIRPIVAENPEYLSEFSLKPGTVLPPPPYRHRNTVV
Method: as §1, §2

[3] = tested on: 180-kDa ErbB receptors and MAP-kinase (Erk-1 and Erk-2) in D4 cells; test: Tyrosine phosphorylation and MAPK activation, immunoblotting; format: cell-based; settings: 100 ng/ml, five minutes
Method: (§3) Derivatives of 32D cells expressing ErbB-4, either alone (D4 cells) or in combination with ErbB-2 (D24 cells) were incubated for 5 minutes at 37° C. with either NRG-4 or NRG-1β (each at 100 ng/ml). Whole cell extracts were then prepared, resolved by gel electrophoresis, and transferred to a nitrocellulose filter. The upper portion of the filter was immunoblotted with antibodies to phosphotyrosine (P-Tyr, the 150-200 kDa region is shown) or an antibody directed at the activated doubly phosphorylated form of the MAPK (Erk1 and Erk2, the 40-50 kDa region is shown). Antibodies were incubated with a secondary reagent coupled to horseradish peroxidase, allowing subsequent detection by chemiluminescence.
(§4) For receptor activation studies, derivatives of the 32D cell line were resuspended in phosphate-buffered solution (PBS) and incubated at 22 C for 15 minutes before adding growth factors and incubating for five minutes at 37 C. Cells were then pelleted and lysed in ice cold solubilization buffer [50 mM Tris-HCl pH 7.5, 150 mM NaCl, 1% Nonidet-P40, 0.5% Na-deoxycholate, 0.1% sodium dodecyl sulfate (SDS), 1.5 mM EDTA, 1.5 mM MgCl2, 2 mM Na-orthovanadate, 1 mM phenylmethylsulfonyl fluoride (PMSF), 10 µg/ml aprotinin and 10 µg/ml leupeptin] and left on ice for 15 minutes. The whole cell extract was then cleared by centrifugation (12,000×g for 10 minutes at 4 C), immediately boiled in reducing gel sample buffer, and resolved by 10% SDS PAGE before being transferred onto nitrocellulose. Filters were blocked in TBST buffer (0.02 M Tris-HCl pH 7.5, 0.15 M NaCl, 0.05% Tween-20) containing 1% milk for 40 minutes at 22 C, blotted with primary antibodies in TBST overnight at 4 C, followed by conjugation with a secondary antibody linked to horseradish peroxidase and subsequent detection by chemiluminescence (Amersham Corp.).
(§5) Evidently, NRG-4 binds to ErbB-4 and mediates cell proliferation through activation of this receptor. Because other ErbB ligands stimulate cell growth via tyrosine phosphorylation of their respective receptors and activation of the intervening mitogen-activated protein kinase (MAPK) cascade, these two signaling steps were tested in NRG-4-responsive myeloid cells expressing ErbB-4 (D4 and D24 cell lines). Cells were stimulated with 100 ng/ml of activating ligand for five minutes, followed by lysis and analysis by immunoblotting.

[4] = tested on: 180-kDa ErbB receptors and MAP-kinase (Erk-1 and Erk-2) in D24 cells; test: as above; format: cell-based; settings: 100 ng/ml, five minutes
Method: as §3, §4, §5

[5] = tested on: Chinese Hamster Ovary (CHO) cell line; test: Binding to untransfected CHO cells (low ErbB-2, no other ErbB); settings: cells express low amounts of ErbB-2, no other ErbB receptor
Method: To test the prediction that NRG-4 can recognize a surface-expressed ErbB-4, but no other membrane-bound ErbB protein, a Chinese Hamster Ovary (CHO) cell line was employed. […] CHO cells were transfected with plasmid vectors directing expression of ErbB-4, or co-transfected with an ErbB-4 plasmid together with vectors expressing one of the three other ErbB proteins. Two days later, cells were incubated with ^125I-NRG-4, or with a radiolabeled NRG-1 as control, and subsequently the formed ligand-receptor complexes were stabilized by using a covalent crosslinking reagent. Immunoprecipitation of the expressed ErbB proteins allowed analysis of the covalently held complexes. […] Nevertheless, both monomers and dimers of ErbB-4 were formed by the two ligands (detection of NRG-4-containing dimers required longer film exposures).

heterodimers of ErbB-4 with ErbB-2 [1]: existence of NRG-4-promoted heterodimers
heterodimerization of ErbB-3 with ErbB-4 ([2]; following ligand binding): largely escaped heterodimerization
B1: NRG-4: synthetic refolded mouse EGF-like domain of NRG-4 (residues 4 to 50, SEQ ID NO:2) (peptide, listed as Mus musculus)
chain: MPTDHEQPCGPRHRSFCLNGGICYVIPTIPSPFCRCIENYTGARCEEVFLPSSSIPSESNLSAAFVVLAVLLTLTIAALCFLCRKGHLQRASSVQCEISLVETNNTRTRHSHREH
effect of ErbB-3 co-expression on the radioactive signal ([2]; CHO cells, ErbB-4 + ErbB-3): did not significantly affect the radioactive signals
activation of MAP-kinase (Erk-1 and Erk-2), D4 cells [3]: accompanying activation of MAP-kinase
phosphorylation of the 180-kDa ErbB receptors, D4 cells [3]: stimulated phosphorylation
activation of MAP-kinase (Erk-1 and Erk-2), D24 cells [4]: accompanying activation of MAP-kinase
phosphorylation of the 180-kDa ErbB receptors, D24 cells [4]: stimulated phosphorylation
binding to untransfected CHO cells [5]: failed to bind
